Results published in patent US20160109449A1 (JULIUS MAXIMILIANS UNIVERSITAET WUERZBURG, published 2016).

Columns and labels:
[1] = target: IsaA oligopeptide SEQ ID NO: 40 (Staphylococcus aureus); assay: peptide array on glass slide, fluorescent secondary antibody
[2] = target: T1, IsaA oligopeptide SEQ ID NO: 31 (Staphylococcus aureus); assay: as above
T1 sequence (peptide): GQTAGFSNVAGADYT

[3] = target: T2, IsaA oligopeptide SEQ ID NO: 30 (Staphylococcus aureus); assay: as above
T2 sequence (peptide): EAANGQTAGFSNVAG

[4] = target: T3, IsaA oligopeptide SEQ ID NO: 60 (Staphylococcus aureus); assay: as above
T3 sequence (peptide): GWGPTNTVDQQINAA

[5] = target: T4, IsaA oligopeptide SEQ ID NO: 36 (Staphylococcus aureus); assay: as above
T4 sequence (peptide): GSDVQSVSYNAQSSN

[6] = target: T5, IsaA oligopeptide SEQ ID NO: 28 (Staphylococcus aureus); assay: as above
T5 sequence (peptide): GTTWSWSYEAANGQT

[7] = target: T6, IsaA oligopeptide SEQ ID NO: 29 (Staphylococcus aureus); assay: as above
T6 sequence (peptide): SWSYEAANGQTAGFS

[8] = target: T7, IsaA oligopeptide SEQ ID NO: 16 (Staphylococcus aureus); assay: as above
T7 sequence (peptide): AAEVNVDQAHLVDLA

[9] = target: T8, IsaA oligopeptide SEQ ID NO: 14 (Staphylococcus aureus); assay: as above
T8 sequence (peptide): AGTGHQAHAAEVNVD

[10] = target: T9, IsaA oligopeptide SEQ ID NO: 13 (Staphylococcus aureus); assay: as above
T9 sequence (peptide): TGYAAGTGHQAHAAE

[11] = target: T10, recombinant IsaA protein of Staphylococcus aureus (29 kDa immunodominant antigen IsaA) (Staphylococcus aureus, UniProt Q2FV52 30-233, limits assumed); assay: SPR (BIACORE 2000), antibody captured on anti-mouse Fc surface, IsaA as analyte, 1:1 Langmuir fit
T10 construct: Coated as rIsaA in the ELISA; In the first SPR experiment it was N-biotinylated with sulfo-NHS-LC-biotin (mostly at a single site) and immobilised on streptavidin; In the second SPR experiment it was the analyte in solution; also called rIsaA; 29 kDa IsaA antigen
T10 sequence (looked up): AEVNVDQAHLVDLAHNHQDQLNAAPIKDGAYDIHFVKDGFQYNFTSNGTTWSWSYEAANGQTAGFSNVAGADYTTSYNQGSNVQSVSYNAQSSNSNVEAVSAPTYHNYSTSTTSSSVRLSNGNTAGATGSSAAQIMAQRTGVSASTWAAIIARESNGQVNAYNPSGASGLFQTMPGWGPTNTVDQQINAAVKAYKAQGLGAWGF
Description: A blank anti mouse Fc surface was used as control surface for monitoring unspecific binding and performing reference subtraction. Interaction analyses were performed using HBS-EP buffer (10 mM HEPES pH 7.4, 150 mM NaCl, 3 mM EDTA, 0.005% Tween 20). Sensorgrams were recorded at a flow rate of 30 μl/min at 25° C. Association and dissociation times were set to 3 and 15 min, respectively.
The anti-Fc capturing surfaces were regenerated after each cycle using short pulses of 10 mM glycine pH 1.7.
Affinities and rate constants for association (kₒₙ) and for dissociation (koff) were calculated using the BIAevaluation software 4.0.1 fitting the obtained sensorgrams to a 1:1 Langmuir binding model.

[12] = target: T10, recombinant IsaA protein of …; assay: SPR (BIACORE 2000), biotinylated IsaA on streptavidin chip, antibody as analyte; off rate set to 10^-5 sec^-1; off rate set to 10^-5 sec^-1
Description: The amount of the immobilized antigen corresponds to about 100 resonance units [RU] measured by means of the BIACORE®2000 system.
Interaction analyses were performed using HBS150 buffer (10 mM HEPES pH7.4, 150 mM NaCl, 3.4 mM EDTA). Sensorgrams were recorded at a flow rate of 10 μl/min at 25° C. The association and dissociation time was set to 10 min. The chips were regenerated after each cycle with different regeneration solutions (A: 1 mM CH₃COOH, 1 M NaCl, pH 3; B: 4 M MgCl₂; C: 1 mM CH₃COOH, 1 M NaCl, 6 M Urea, pH 3) for 2 min.
Since the evaluation of the kinetic rate constant is limited to 10⁻⁵ sec⁻¹ the observed off-rate has to be smaller than that value.

[13] = target: T11, IsaA oligopeptide SEQ ID NO: 49 (Staphylococcus aureus); assay: peptide array on glass slide, fluorescent secondary antibody;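 also: binding of a hybridoma-secreted monoclonal antibody to immobilized oligopeptide spots, compared with control antibodies, detected through a fluorescence-labeled secondary antibody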
T11 construct: Synthetic 15-mer of IsaA, spotted on a glass slide
T11 peptide: AAQIMAQRTGVSAST
Description: (§1) Each oligopeptide was immobilized on a small spot on a glass side. Binding of the monoclonal antibodies secreted by the hybridoma cell line DSM ACC2987 and of control antibodies to these spots was examined upon incubation with these antibodies by binding of fluorescence labeled secondary antibodies and detecting fluorescence intensities.

[14] = target: T12, IsaA oligopeptide SEQ ID NO: 33 (Staphylococcus aureus); assay: as above
T12 construct: Synthetic 15-mer of IsaA, spotted on a glass slide
T12 peptide: VAGADYTTSYNQGSD
Description: as §1

[15] = target: T13, IsaA oligopeptide SEQ ID NO: 27 (Staphylococcus aureus); assay: as above
T13 construct: Synthetic 15-mer of IsaA, spotted on a glass slide
T13 peptide: FTSNGTTWSWSYEAA
Description: as §1

[16] = target: T14, IsaA oligopeptide SEQ ID NO: 10 (Staphylococcus aureus); assay: as above
T14 construct: Synthetic 15-mer of IsaA, spotted on a glass slide
T14 peptide: IMASSLAVALGVTGY
Description: as §1

[17] = target: T15, IsaA oligopeptide SEQ ID NO: 56 (Staphylococcus aureus); assay: as above
T15 construct: Synthetic 15-mer of IsaA, spotted on a glass slide
T15 peptide: NAYNPSGASGLFQTM
Description: as §1

[18] = target: T16, IsaA oligopeptide SEQ ID NO: 17 (Staphylococcus aureus); assay: as above
T16 construct: Synthetic 15-mer of IsaA, spotted on a glass slide
T16 peptide: NVDQAHLVDLAHNHQ
Description: as §1

[19] = target: T17, IsaA oligopeptide SEQ ID NO: 46 (Staphylococcus aureus); assay: as above
T17 construct: Synthetic 15-mer of IsaA, spotted on a glass slide
T17 peptide: SNGNTAGATGSSAAQ
Description: as §1

[20] = target: T18, IsaA oligopeptide SEQ ID NO: 20 (Staphylococcus aureus); assay: as above
T18 construct: Synthetic 15-mer of IsaA, spotted on a glass slide
T18 peptide: NHQDQLNAAPIKDGA
Description: as §1

[21] = target: T19, IsaA oligopeptide SEQ ID NO: 37 (Staphylococcus aureus); assay: as above
T19 construct: Synthetic 15-mer of IsaA, spotted on a glass slide
T19 peptide: QSVSYNAQSSNSNVE
Description: as §1

[22] = target: T20, IsaA oligopeptide SEQ ID NO: 52 (Staphylococcus aureus); assay: as above
T20 construct: Synthetic 15-mer of IsaA, spotted on a glass slide
T20 peptide: ASTWAAIIARESNGQ
Description: as §1

[23] = target: T21, IsaA oligopeptide SEQ ID NO: 41 (Staphylococcus aureus); assay: as above
T21 construct: Synthetic 15-mer of IsaA, spotted on a glass slide
T21 peptide: VSAPTYHNYSTSTTS
Description: as §1

[24] = target: T22, IsaA oligopeptide SEQ ID NO: 61 (Staphylococcus aureus); assay: as above
T22 construct: Synthetic 15-mer of IsaA, spotted on a glass slide
T22 peptide: TNTVDQQINAAVKAY
Description: as §1

[25] = target: T23, IsaA oligopeptide SEQ ID NO: 35 (Staphylococcus aureus); assay: as above
T23 construct: Synthetic 15-mer of IsaA, spotted on a glass slide
T23 peptide: SYNQGSDVQSVSYNA
Description: as §1

[26] = target: T24, IsaA oligopeptide SEQ ID NO: 57 (Staphylococcus aureus); assay: as above
T24 construct: Synthetic 15-mer of IsaA, spotted on a glass slide
T24 peptide: PSGASGLFQTMPGWG
Description: as §1

[27] = target: T25, IsaA oligopeptide SEQ ID NO: 9 (Staphylococcus aureus); assay: as above
T25 construct: Synthetic 15-mer of IsaA, spotted on a glass slide
T25 peptide: MKKTIMASSLAVALG
Description: as §1

[28] = target: T26, IsaA oligopeptide SEQ ID NO: 55 (Staphylococcus aureus); assay: as above
T26 construct: Synthetic 15-mer of IsaA, spotted on a glass slide
T26 peptide: NGQVNAYNPSGASGL
Description: as §1

[29] = target: T27, IsaA oligopeptide SEQ ID NO: 45 (Staphylococcus aureus); assay: as above
T27 construct: Synthetic 15-mer of IsaA, spotted on a glass slide
T27 peptide: SVRLSNGNTAGATGS
Description: as §1

“control antibodies (peptide array) (antibody)” gave a Binding (fluorescence intensity) [1] of -27, a Binding (fluorescence intensity) [2] of -20 and a Binding (fluorescence intensity) [3] of -7. For the same molecule, the Binding (fluorescence intensity) [4] was 18.7, the Binding (fluorescence intensity) [5] was -14.3 and the Binding (fluorescence intensity) [6] was 77.3. The Binding (fluorescence intensity) [7] was 85.7, the Binding (fluorescence intensity) [8] was 117 and the Binding (fluorescence intensity) [9] was -35. It also gave a Binding (fluorescence intensity) [10] of 367.

B1: monoclonal antibody MAB-UK-66 secreted by hybridoma cell line DSM ACC2987 (antibody, V domains shown)
VH: DVKLVESGGGLVKLGGSLKLSCSASGFTFSNYYMSWVRQTPEKRLELVADINGNGGSTYYPDTVKGRFTISRDNAKNTLYLQMSSLKSEDTALYYCVRRGGYYALDYWGQGTTVTVSS
VL: DVVMTQTPLSLPVSLGDQASISCRSSQSLVHINGNTYLHWYLQKPGQSPKLLIYRVSNRFSGVPDRFSGSGSGTDFTLKISRVEAEDLGVYFCSQSTHVPWTFGGGTKLELKR
notes: Monoclonal mouse antibody from a hybridoma; Detected with anti-mouse IgG; also called antibodies secreted by cell line DSM ACC2987; anti-IsaA MAB
Work on B1 yielded a Kd [11] of 1.7 nM, a koff [11] of 0.00029 s⁻¹ and a kon [11] of 180000 M⁻¹ s⁻¹. For the same molecule, the Kd [12] was no more than 0.018 nM, the kon [12] was 560000 M⁻¹ s⁻¹ and the Binding (fluorescence intensity) [1] was 6010. The Binding (fluorescence intensity) [2] was 2940, the Binding (fluorescence intensity) [3] was 1670 and the Binding (fluorescence intensity) [4] was 3070. It also gave a Binding (fluorescence intensity) [5] of 2740, a Binding (fluorescence intensity) [6] of 3170 and a Binding (fluorescence intensity) [7] of 2490. For the same molecule, the Binding (fluorescence intensity) [8] was 1950, the Binding (fluorescence intensity) [9] was 3190 and the Binding (fluorescence intensity) [10] was 5750. The “Binding (fluorescence intensity)” value [13] was 399, the “Binding (fluorescence intensity)” value [14] was 55500 and the “Binding (fluorescence intensity)” value [15] was 442. For the same molecule, the “Binding (fluorescence intensity)” value [16] was 228, the “Binding (fluorescence intensity)” value [17] was 959 and the “Binding (fluorescence intensity)” value [18] was 17700. For the same molecule, the “Binding (fluorescence intensity)” value [19] was 587, the “Binding (fluorescence intensity)” value [20] was 1050 and the “Binding (fluorescence intensity)” value [21] was 139. For the same molecule, the “Binding (fluorescence intensity)” value [22] was 285, the “Binding (fluorescence intensity)” value [23] was 421 and the “Binding (fluorescence intensity)” value [24] was 479. The “Binding (fluorescence intensity)” value [25] was 506, the “Binding (fluorescence intensity)” value [26] was 16800 and the “Binding (fluorescence intensity)” value [27] was 273. The “Binding (fluorescence intensity)” value [28] was 1030 and the “Binding (fluorescence intensity)” value [29] was 235.
